Experimental data published in US20110230416A1.

What was measured:
[1] = molecular target: hLDLR of non-genetically modified human cells (human fibroblasts, HUVEC) (human) (UniProt P01130); test: FACS on HUVEC, competition; displaced: bacterial viruses expressing SEQ ID NO: 11
[2] = molecular target: hLDLR of non-genetically modified human cells (human fibroblasts, HUVEC) (human) (UniProt P01130); test: FACS on HUVEC, competition; displaced: bacterial viruses expressing SEQ ID NO: 21

LDL, natural ligand of hLDLR, sequence (P04114 28-4563): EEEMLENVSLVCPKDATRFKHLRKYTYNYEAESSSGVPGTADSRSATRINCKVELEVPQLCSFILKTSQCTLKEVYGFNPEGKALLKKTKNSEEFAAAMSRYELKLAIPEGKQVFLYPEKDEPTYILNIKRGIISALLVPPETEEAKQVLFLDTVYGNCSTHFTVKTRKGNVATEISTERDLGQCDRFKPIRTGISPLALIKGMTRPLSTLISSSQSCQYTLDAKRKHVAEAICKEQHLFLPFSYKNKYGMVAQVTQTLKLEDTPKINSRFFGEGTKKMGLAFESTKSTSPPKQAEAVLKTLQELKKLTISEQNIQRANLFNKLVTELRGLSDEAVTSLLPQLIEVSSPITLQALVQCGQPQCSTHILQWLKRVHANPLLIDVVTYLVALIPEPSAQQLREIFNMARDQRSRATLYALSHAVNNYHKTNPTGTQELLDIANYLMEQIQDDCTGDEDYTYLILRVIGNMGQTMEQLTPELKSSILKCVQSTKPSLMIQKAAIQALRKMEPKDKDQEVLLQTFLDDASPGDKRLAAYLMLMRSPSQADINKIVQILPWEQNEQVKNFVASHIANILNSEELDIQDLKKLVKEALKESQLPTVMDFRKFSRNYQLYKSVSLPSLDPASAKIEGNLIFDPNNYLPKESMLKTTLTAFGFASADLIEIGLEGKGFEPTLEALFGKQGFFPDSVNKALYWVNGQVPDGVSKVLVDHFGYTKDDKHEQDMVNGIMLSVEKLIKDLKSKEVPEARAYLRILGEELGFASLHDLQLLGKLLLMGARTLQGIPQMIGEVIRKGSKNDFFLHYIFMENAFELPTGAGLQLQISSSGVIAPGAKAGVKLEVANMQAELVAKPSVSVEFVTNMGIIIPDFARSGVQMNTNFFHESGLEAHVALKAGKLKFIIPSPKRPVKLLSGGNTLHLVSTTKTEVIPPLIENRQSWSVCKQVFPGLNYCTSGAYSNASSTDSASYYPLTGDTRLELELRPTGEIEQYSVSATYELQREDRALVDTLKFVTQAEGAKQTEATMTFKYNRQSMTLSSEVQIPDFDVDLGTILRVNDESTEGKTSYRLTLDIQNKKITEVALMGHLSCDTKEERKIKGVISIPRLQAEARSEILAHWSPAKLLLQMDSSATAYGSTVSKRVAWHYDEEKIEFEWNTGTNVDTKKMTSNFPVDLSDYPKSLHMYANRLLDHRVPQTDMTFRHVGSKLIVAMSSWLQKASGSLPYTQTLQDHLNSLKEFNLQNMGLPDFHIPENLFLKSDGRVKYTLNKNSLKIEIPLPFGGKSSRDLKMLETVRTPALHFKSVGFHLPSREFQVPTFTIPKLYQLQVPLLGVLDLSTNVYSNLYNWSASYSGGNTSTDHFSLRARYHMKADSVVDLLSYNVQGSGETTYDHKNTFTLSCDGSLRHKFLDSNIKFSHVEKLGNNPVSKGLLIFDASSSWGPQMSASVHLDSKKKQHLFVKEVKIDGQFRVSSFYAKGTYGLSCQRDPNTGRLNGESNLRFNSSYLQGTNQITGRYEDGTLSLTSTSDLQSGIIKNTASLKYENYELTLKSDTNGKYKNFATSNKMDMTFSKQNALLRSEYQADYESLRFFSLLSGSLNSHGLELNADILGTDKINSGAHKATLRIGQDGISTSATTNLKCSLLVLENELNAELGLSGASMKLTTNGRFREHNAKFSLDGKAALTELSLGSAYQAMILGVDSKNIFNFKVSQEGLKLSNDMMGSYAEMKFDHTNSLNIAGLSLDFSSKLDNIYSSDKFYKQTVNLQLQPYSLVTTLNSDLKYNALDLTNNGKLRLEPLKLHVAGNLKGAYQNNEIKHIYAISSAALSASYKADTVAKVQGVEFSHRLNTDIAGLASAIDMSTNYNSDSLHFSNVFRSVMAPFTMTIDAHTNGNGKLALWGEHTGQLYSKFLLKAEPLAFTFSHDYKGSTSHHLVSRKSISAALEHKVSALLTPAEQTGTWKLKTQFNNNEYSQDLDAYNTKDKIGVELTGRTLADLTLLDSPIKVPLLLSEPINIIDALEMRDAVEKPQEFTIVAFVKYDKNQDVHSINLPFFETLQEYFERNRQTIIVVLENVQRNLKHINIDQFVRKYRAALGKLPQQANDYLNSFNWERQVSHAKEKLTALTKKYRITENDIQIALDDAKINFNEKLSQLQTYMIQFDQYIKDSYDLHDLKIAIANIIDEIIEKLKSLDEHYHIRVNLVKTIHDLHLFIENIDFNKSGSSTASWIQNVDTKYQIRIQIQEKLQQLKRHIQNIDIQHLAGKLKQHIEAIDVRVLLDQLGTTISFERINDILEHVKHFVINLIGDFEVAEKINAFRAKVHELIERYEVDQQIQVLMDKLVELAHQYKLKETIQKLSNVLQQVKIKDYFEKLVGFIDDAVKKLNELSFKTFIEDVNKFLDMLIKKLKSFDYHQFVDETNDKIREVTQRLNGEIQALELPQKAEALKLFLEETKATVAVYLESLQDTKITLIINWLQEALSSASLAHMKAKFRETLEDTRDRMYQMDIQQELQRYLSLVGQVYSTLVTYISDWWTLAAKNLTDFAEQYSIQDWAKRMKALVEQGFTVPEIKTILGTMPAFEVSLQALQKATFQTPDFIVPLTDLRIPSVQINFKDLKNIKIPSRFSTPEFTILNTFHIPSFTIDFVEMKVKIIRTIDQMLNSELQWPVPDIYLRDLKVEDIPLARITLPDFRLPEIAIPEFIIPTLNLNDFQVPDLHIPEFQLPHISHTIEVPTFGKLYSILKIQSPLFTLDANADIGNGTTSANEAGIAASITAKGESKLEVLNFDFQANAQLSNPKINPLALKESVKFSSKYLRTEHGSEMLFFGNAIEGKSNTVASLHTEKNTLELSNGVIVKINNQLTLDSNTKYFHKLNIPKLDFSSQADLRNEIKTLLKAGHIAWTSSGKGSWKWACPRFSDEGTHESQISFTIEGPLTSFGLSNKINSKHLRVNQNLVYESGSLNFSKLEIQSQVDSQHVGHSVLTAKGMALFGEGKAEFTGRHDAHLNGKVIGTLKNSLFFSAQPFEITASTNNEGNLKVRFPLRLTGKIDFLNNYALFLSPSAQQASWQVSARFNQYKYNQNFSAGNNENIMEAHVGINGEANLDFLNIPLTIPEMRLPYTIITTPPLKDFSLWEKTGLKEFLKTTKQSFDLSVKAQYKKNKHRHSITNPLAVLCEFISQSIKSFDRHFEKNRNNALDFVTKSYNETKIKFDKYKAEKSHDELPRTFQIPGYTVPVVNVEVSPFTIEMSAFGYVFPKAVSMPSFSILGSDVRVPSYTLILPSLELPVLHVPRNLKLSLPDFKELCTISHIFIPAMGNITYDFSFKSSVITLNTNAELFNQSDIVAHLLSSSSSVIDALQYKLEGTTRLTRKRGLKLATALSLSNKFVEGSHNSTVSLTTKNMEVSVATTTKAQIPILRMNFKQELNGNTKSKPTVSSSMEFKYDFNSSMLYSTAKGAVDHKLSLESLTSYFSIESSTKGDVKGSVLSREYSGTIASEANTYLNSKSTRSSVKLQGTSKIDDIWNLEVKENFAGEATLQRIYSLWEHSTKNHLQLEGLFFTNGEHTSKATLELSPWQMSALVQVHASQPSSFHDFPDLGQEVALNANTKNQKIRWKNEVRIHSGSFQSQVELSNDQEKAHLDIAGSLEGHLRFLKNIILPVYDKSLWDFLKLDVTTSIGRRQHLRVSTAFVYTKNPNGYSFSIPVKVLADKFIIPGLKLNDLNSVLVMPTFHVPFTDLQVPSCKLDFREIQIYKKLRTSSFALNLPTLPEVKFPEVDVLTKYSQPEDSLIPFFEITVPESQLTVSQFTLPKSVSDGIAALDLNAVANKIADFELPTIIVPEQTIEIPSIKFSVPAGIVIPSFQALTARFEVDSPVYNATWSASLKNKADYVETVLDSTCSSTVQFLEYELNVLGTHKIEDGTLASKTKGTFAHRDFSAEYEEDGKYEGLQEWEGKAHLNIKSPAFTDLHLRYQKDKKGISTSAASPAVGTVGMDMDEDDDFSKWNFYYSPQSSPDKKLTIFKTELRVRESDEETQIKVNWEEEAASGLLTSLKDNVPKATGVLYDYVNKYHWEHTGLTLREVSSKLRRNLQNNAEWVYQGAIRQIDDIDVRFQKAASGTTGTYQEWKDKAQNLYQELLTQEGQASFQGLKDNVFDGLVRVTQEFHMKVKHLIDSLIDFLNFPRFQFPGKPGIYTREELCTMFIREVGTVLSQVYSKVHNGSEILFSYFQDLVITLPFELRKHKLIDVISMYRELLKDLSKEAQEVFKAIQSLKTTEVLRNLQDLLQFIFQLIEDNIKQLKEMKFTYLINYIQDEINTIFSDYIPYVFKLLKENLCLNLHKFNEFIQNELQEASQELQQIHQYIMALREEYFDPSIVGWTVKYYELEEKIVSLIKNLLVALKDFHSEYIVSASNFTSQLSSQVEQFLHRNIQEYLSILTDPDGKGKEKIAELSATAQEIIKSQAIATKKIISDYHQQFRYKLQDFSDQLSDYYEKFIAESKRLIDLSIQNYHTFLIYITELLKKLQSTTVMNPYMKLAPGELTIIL

In the case of LDL, natural ligand of hLDLR, the loss of signal in Q2 on adding LDL [1] was 17% and the loss of signal in Q2 on adding LDL [2] was 85%.
